The assay addresses TAMRA-C(Ahx)QpYDHPNI-CONH2 (CRK SH2-binding phosphopeptide) on nanoparticles (pY-peptide TSACs). Briefly: DLS of nanoparticle assembly, 12 nM TSACs, both partners polyvalent on particles.

The substance “Crk SH2 domain with an N-terminal cysteine (cys-SH2), conjugated to iron oxide nanoparticles (SH2 TSACs) (from UniProt P46108 13-118)” came in with a hydrodynamic radius increase of 10 fold.

These data come from patent US20090246142A1, “Triggered Self-Assembly of Nanoparticles In Vivo” (MASSACHUSETTS INSTITUTE OF TECHNOLOGY, priority 2006, published 2009).
